# Results: publication PMC3800017
# B1: Insulin A1 (dsDNA)
# DNA 1: AGGCCCTAATGGGCCA
# DNA 2: TGGCCCATTAGGGCCT
# B2: Insulin A3 (dsDNA)
# DNA 1: AGACTCTAATGACCCG
# DNA 2: CGGGTCATTAGAGTCT
# B3: IAPP A1 (dsDNA)
# DNA 1: GGAAATTAATGACAGA
# DNA 2: TCTGTCATTAATTTCC
# B4: Insulin E1 (dsDNA)
# DNA 1: AGCCATCTGCCGACCC
# DNA 2: GGGTCGGCAGATGGCT
# B5: IAPP A2 (dsDNA)
# DNA 1: ATGAGTTAATGTAATA
# DNA 2: TATTACATTAACTCAT
# Biological target: Pdx1 homeodomain (Pdx1-HD) (Homo sapiens, UniProt P52945 146-206)
# Experiment: ITC
# Chain of Pdx1 homeodomain (Pdx1-HD) (P52945 146-206): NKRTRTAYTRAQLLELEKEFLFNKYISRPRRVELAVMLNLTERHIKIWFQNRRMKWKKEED
row,Binder,Kd
1,B1,7 ± 2 nM
2,B2,4 ± 1 nM
3,B3,22 ± 5 nM
4,B4,1300 ± 300 nM
5,B5,27 ± 7 nM
